Results as given in the supplement of paper PMC10126150.
± gives the standard deviation of the averaged measurements.

The sequences below were run on ATP (assay: switch fluorescence ratio, 500 uM ATP over buffer (Cy3 cluster intensity, sum of 5 cycles each) (fold (ratio)); higher = stronger signal-on switching upon ATP binding; sequences stand for … in TCGTCGGCAGCGTCAGATGTGTATAAGAGACAGTTTTTTTTTTTTTTTTTTTTTTTTT…TC). Details: aptamer strand: ATP DNA aptamer (quencher-CACCTGGGGGAGTATTGCGGAGGAAGG + anchor), 100 nM annealed; ATP concentration: 500 uM.
Procedure, shortened: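 Cy3-labelled switching-strand clusters on a modified Illumina MiSeq flow-cell were annealed to 100 nM quencher-labelled ATP aptamer, imaged in selection buffer, then imaged after 15 min with 500 uM ATP at 22 °C. Five buffer/ATP cycles ran, with NaOH stripping and re-annealing between them. The fluorescence ratio is summed target-cycle over summed buffer-cycle Cy3 intensity per cluster, averaged per switch-domain sequence. Clusters outside 100-1000 RFU were excluded.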
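Also: ATP exposure 15 min at 22 °C before imaging.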

Sequence | switch fluorescence ratio
TGGGGAGTAA | 1.015 ± 0.0092
GAGGTGTGAG | 1.03 ± 0.018
ACTAGTGGGG | 0.996 ± 0.017
TGGTCCTCCG | 1.87 ± 0.31
TCGTATTAAG | 0.969 ± 0.046
GGAAGTTAGA | 0.9819 ± 0.0036
ATTTGGAAGA | 1.01 ± 0.0048
TACCACTGCG | 1.04 ± 0.029
GGGAAATAAA | 0.988 ± 0.013
TACGAATGAG | 0.9854 ± 0.0057
CGGGAGATTA | 0.9872 ± 0.0084
GGGGGAGGAG | 0.996 ± 0.013
ACGTTTTGTC | 1 ± 0.061
GTAAACGGTG | 0.979 ± 0.032
AGGGAGCGAA | 1.003 ± 0.0097
GGGGGTTCTT | 1.01 ± 0.049
ATGACCGATT | 1.02 ± 0.049
TGTCAGGGCA | 1.02 ± 0.064
GATTGGGTGG | 1 ± 0.017
CTATAACGTT | 1.01 ± 0.005
CTGTACGGAT | 1.95 ± 1.7
TTACAAAGGA | 0.999 ± 0.017
ATGGGGACCT | 1.17 ± 0.17
CGAGTACTGG | 1.03 ± 0.016
AGTATCTTTA | 0.9913 ± 0.0096

Sequence | switch fluorescence ratio
GAATCTTGGA | 0.99 ± 0.015
GTATTAGCAG | 1.03 ± 0.026
TTTTTCGGGA | 1 ± 0.023
TGGGAGAGT | 1.011 ± 0.0034
CGGTTTTCTT | 0.995 ± 0.012
AAACGGAGGG | 0.996 ± 0.038
GGGCCGGTTG | 0.995 ± 0.017
CGGCGCGGAT | 1.02 ± 0.04
AGGGTCAGGA | 0.996 ± 0.021
GCGTGCAGGA | 1.027 ± 0.01
AGGTCCGGAA | 1.14 ± 0.017
ATTTTGCCGG | 0.965 ± 0.013
GATCCTAACG | 1.04 ± 0.048
ACTCAAACCA | 1.14 ± 0.035
GCATAACATT | 1.01 ± 0.014
GTTAACGTGG | 0.99 ± 0.019
ATTGGGGGGT | 0.988 ± 0.015
TTTTCAAGAG | 1.019 ± 0.01
TTGTGGGGG | 1.0016 ± 0.0009
AGTTGTGGGG | 0.995 ± 0.032
CAATTATCGC | 0.988 ± 0.028
TTTCCCGCTC | 1.93 ± 0.33
GGGGGGGTGC | 1.02 ± 0.049
TTGATTAGAT | 1.014 ± 0.0016
TAGGCTCGG | 1.014 ± 0.0019

Sequence | switch fluorescence ratio
TGGAACTATA | 1.02 ± 0.018
GCCGAACCTC | 1.28 ± 0.037
GAAAGATACC | 1.03 ± 0.043
TGGAGGGTGG | 1.01 ± 0.019
TAAGGGGGTG | 1.01 ± 0.023
TGATTTGTTT | 1 ± 0.04
AGGTAGGGGG | 0.993 ± 0.019
ATGTTGTCGA | 1.01 ± 0.031
ATTTTTCCGT | 1.02 ± 0.019
AAAAGTTTGT | 1 ± 0.032
TGGGAGGGTC | 1.12 ± 0.14
CATTTATTTT | 1.01 ± 0.044
CAGGTAGTTG | 1.004 ± 0.0032
CTGTGTTCTT | 0.9864 ± 0.0065
TTGCGTAGCA | 0.977 ± 0.02
ATTTGTTTCT | 0.9993 ± 0.0079
TGGCGTTTTT | 1.01 ± 0.023
AAACTTAAGA | 0.996 ± 0.049
AAGATCAGGC | 0.9735 ± 0.0023
ATGTAAAATG | 1.04 ± 0.066
TTCCTGGGGA | 0.9943 ± 0.0077
AATATATGCA | 0.991 ± 0.034
CGGGTTAGTC | 1.07 ± 0.027
ACGGAATTGT | 1.07 ± 0.029
GCGGGGCCAT | 1.02 ± 0.028

Sequence | switch fluorescence ratio
CAATTTTAGG | 0.987 ± 0.018
CGAGGGTAAC | 0.983 ± 0.029
AGCTCTGCGA | 1.09 ± 0.039
AGGGTAGGGA | 0.9917 ± 0.004
GAACTAGGTC | 1.01 ± 0.021
TATATAGAGC | 1.02 ± 0.011
ATAGATTAGG | 0.9854 ± 0.0092
ATGTGTGAAT | 0.997 ± 0.015
CGGCCTAAGG | 1.01 ± 0.016
GTCGGCGTTG | 0.9916 ± 0.0027
TGTCGGAGGT | 1.02 ± 0.05
AAATATACGA | 1.16 ± 0.15
GGGTTTAATC | 1.08 ± 0.077
GCAGTTGGGG | 0.998 ± 0.032
TATGTCCCGT | 0.974 ± 0.029
TAACAACGTA | 1.066 ± 0.0064
TTATTTTCGG | 0.994 ± 0.019
GGATATTGTC | 0.991 ± 0.024
TAAATTTTTT | 0.996 ± 0.032
TCGATTTTGG | 1 ± 0.029
TTTATCGTTG | 0.998 ± 0.025
CAGGGGTAGG | 1.09 ± 0.044
TGTTGGGATT | 0.998 ± 0.016
TGTGGGGCAT | 1.15 ± 0.27
ATGATATTGA | 0.99 ± 0.011

Sequence | switch fluorescence ratio
ACCGCCGTCA | 1.08 ± 0.012
ATGGTAAGGT | 1 ± 0.014
AGTAACATAT | 0.993 ± 0.012
CGTTTGTTGC | 0.974 ± 0.034
GCTGTTAGTG | 0.98 ± 0.013
TTGCAAGTTT | 0.9811 ± 0.00083
TAAATTTGAA | 0.976 ± 0.0034
TATATTGTA | 0.986 ± 0.03
AACTGTGGAA | 0.991 ± 0.015
AGATTGGGGA | 1.01 ± 0.013
TGGGTTACGA | 1.04 ± 0.035
AAGAGTTTTT | 0.981 ± 0.033
TTACCTCTGC | 1.39 ± 0.067
GCGGGGCTCA | 1.12 ± 0.11
GGGTGAGGCG | 0.981 ± 0.038
GTTTAACGGG | 1.03 ± 0.051
TCCGGAGGGA | 1.04 ± 0.089
TTTGTTGCCT | 1.014 ± 0.0088
AATGGCATGG | 1.02 ± 0.016
AACTTGTTAG | 1.01 ± 0.016
ATAGCCCGCT | 1.03 ± 0.0014
GAATAAAGAG | 0.966 ± 0.034
TACGGTAGCT | 1.12 ± 0.051
CCAGGAAGGT | 1.0204 ± 0.00069
CTGTGTGCCT | 0.995 ± 0.07

Sequence | switch fluorescence ratio
TCACTTGAGC | 1.011 ± 0.0091
CGTGGCGGAT | 0.9709 ± 0.0092
TCATGTTAAA | 0.98647 ± 0.0005
GGTCAAGTGG | 1 ± 0.02
GCATTAGGGG | 1.01 ± 0.016
ACCCAGACGC | 1.35 ± 0.058
TTTAAATTGT | 0.99 ± 0.035
CACAGTGGTA | 1.03 ± 0.058
ACACATAGGG | 0.9985 ± 0.0084
TAGCCGACGG | 1.03 ± 0.058
GGATGGGTGT | 1.02 ± 0.034
CAGCCCAGGT | 4.12 ± 2.7
ACGCGCTTTA | 0.99871 ± 0.00033
TACGGTGAGG | 1.02 ± 0.011
TTAGACCGTG | 0.956 ± 0.079
GTTTTCACTC | 1.0086 ± 0.00085
GGGCATTTAG | 1.03 ± 0.092
TGGGATCCAT | 0.972 ± 0.015
AAAGGGGGT | 1.01 ± 0.026
AAAAGAGGTG | 1.08 ± 0.034
TCTAATCGGA | 0.975 ± 0.04
AGTTGAGCTT | 0.987 ± 0.013
GTGGATTTGG | 1.019 ± 0.0056
TGCTTTCGTC | 0.945 ± 0.031
GGGAATTTAA | 1.02 ± 0.019

Sequence | switch fluorescence ratio
AAGGGTAGGA | 1 ± 0.013
ATGACTTATT | 0.968 ± 0.027
TCTACATGAT | 1.05 ± 0.013
ACTGCGTAAA | 0.991 ± 0.041
AATCATGGGG | 0.993 ± 0.041
GTTGAAAAGG | 0.971 ± 0.051
ACAGCGCTTT | 1.03 ± 0.025
GTGGTAAGAT | 0.991 ± 0.037
TAGTTATGTT | 0.96389 ± 0.00072
TCGATATATG | 1 ± 0.028
CTAAGGGTTC | 0.999 ± 0.015
TTAGATGGTT | 0.984 ± 0.021
AAGGACAAGG | 0.999 ± 0.043
CCTTTTTGTC | 1.12 ± 0.06
CGGGCGAGGA | 0.989 ± 0.029
AGATCGTTGT | 0.978 ± 0.028
AGAGTTCTCG | 0.978 ± 0.012
GGCTATGTGG | 0.987 ± 0.03
ATATCTTAGT | 1.017 ± 0.00089
GCGACACACT | 1.47 ± 0.058
TAAGGCGTTA | 0.985 ± 0.031
AACTCAGCCG | 1.03 ± 0.013
AACTGTAAAT | 1.25 ± 0.2
ACACCTAGGC | 1.12 ± 0.054
GGAGTTATAT | 1.105 ± 0.01

Sequence | switch fluorescence ratio
ATTTAATTCG | 1.01 ± 0.022
CTTTTAGGGG | 1.01 ± 0.012
TCCAAAAACG | 1.15 ± 0.21
TTTGTTGCAG | 0.994 ± 0.036
GCAAATAAGT | 1.02 ± 0.038
GAATCTGTGT | 0.998 ± 0.031
GACAGATATG | 0.979 ± 0.081
TTGAGCCTGT | 0.977 ± 0.028
ACAGTAGGA | 1.06 ± 0.013
CGCAGGTGGG | 1.08 ± 0.042
GGAGGGTTAC | 0.972 ± 0.016
TGTTTTTTGA | 0.99 ± 0.011
CCGGGAAATT | 1.22 ± 0.36
GGTTCTACAT | 0.998 ± 0.03
TGGGGACAAT | 0.987 ± 0.018
TGAGGATGGA | 0.975 ± 0.044
TGTATATGG | 0.958 ± 0.016
GGAAGGGGCT | 1.08 ± 0.12
AGGGTCTCGT | 1.009 ± 0.0025
TAAGTAGATT | 0.995 ± 0.018
TTCATGGTTT | 1.01 ± 0.028
ACTTTGCGGT | 1.078 ± 0.0015
GAGTTAAGGG | 1.007 ± 0.0018
CGAGGGCTAG | 1.04 ± 0.074
TGTGCTAAGT | 0.985 ± 0.026
